Results from paper PMC9424855, “Obligately aerobic human gut microbe expresses an oxygen resistant tungsten-containing oxidoreductase for detoxifying gut aldehydes” (Frontiers in Microbiology, 2022).

Assays:
O=Cc1ccccc1 = assay: purified protein; conditions: apparent Km, benzyl viologen 1 mM as electron acceptor, 50 mM HEPES pH 7.5, 35 °C, anaerobic
CC(C)CC=O = assay: purified protein; conditions: apparent Km, benzyl viologen 1 mM as electron acceptor, 50 mM HEPES pH 7.5, 35 °C, anaerobic
O=C/C=C/c1ccccc1 = assay: purified protein; conditions: apparent Km, benzyl viologen 1 mM as electron acceptor, 50 mM HEPES pH 7.5, 35 °C, anaerobic
O=Cc1ccco1 = assay: purified protein; conditions: apparent Km, benzyl viologen 1 mM as electron acceptor, 50 mM HEPES pH 7.5, 35 °C, anaerobic
[1] = target: Brevibacillus massiliensis tungsten-containing oxidoreductase (BmWOR) (Brevibacillus massiliensis)
BmWOR = BmWOR (Brevibacillus massiliensis, UniProt Z9C1J5R5O5); assay: benzyl viologen reduction followed at […] nm; conditions: apparent Km; benzyl viologen 1 mM as electron acceptor, 50 mM HEPES pH 7.5, 35 °C, anaerobic
Sequence of BmWOR (Z9C1J5R5O5 1-602): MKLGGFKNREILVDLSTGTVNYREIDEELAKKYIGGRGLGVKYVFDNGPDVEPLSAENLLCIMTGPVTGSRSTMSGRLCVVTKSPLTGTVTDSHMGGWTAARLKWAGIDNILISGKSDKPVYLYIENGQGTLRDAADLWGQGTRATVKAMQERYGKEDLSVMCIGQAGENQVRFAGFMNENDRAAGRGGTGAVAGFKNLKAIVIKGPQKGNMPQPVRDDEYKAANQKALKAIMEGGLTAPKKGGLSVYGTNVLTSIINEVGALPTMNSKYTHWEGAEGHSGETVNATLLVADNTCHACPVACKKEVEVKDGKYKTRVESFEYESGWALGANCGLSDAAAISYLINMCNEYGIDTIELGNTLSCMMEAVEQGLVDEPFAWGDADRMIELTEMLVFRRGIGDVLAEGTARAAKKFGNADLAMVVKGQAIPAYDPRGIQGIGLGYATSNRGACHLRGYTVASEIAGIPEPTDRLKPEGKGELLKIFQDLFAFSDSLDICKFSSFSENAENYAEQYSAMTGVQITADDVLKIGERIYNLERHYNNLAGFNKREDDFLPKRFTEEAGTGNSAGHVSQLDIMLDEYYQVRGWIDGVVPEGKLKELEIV

Q: Which Km (O=Cc1ccccc1) does the source give for BmWOR (Brevibacillus massiliensis) here?
A: Its Km is 4.2 ± 1.0 µM.

Q: And the Km (CC(C)CC=O)?
A: Its Km is 3.6 ± 0.9 µM.

Q: And the Km (O=C/C=C/c1ccccc1)?
A: Its Km is 5.6 ± 1.2 µM.

Q: And the Km (O=Cc1ccco1)?
A: Its Km is 2.1 ± 2.0 µM.

Q: “Brevibacillus massiliensis ferredoxin (BmFd) (natural protein)” was tested. Which apparent Km for Fd as electron acceptor of BmWOR in the benzaldehyde oxidation assay (enzyme activity, Fd reduction followed at 425 nm) [1] did it give?
A: Its apparent Km for Fd as electron acceptor of BmWOR in the benzaldehyde oxidation assay (enzyme activity, Fd reduction followed at 425 nm) is < 5 µM.

Q: Which Km (BmWOR) does the source give for Tolualdehyde here?
A: Its Km is 6.1 ± 2.1 µM.
